The chains are these.
T1: GST-TaSPL14 (UniProt A0A3B6LP29 1-396)
T1 sequence: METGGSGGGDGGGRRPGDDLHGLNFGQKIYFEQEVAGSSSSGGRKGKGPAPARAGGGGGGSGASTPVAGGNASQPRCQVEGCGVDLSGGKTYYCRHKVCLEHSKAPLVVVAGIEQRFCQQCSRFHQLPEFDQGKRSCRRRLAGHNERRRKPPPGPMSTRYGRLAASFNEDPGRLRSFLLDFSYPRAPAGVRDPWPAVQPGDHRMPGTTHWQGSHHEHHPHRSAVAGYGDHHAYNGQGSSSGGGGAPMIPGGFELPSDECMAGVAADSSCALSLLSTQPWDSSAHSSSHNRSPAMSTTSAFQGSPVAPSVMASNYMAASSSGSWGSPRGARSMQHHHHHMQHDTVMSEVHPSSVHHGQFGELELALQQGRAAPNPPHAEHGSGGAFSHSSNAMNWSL

B1: TaRAP2.11 promoter probe (dsDNA)
DNA 1: ATGACTTGATGCGGTACAATAATATTAAGC
DNA 2: GCTTAATATTATTGTACCGCATCAAGTCAT
B2: TaERF1 promoter probe (dsDNA)
DNA 1: AGAAAAGAAAAAAGTACGATCATTCCTCGT
DNA 2: ACGAGGAATGATCGTACTTTTTTCTTTTCT
B3: TaEIL1 promoter probe (dsDNA)
DNA 1: GCCAAAACTTTTAGTACAACTTAAGTCTTT
DNA 2: AAAGACTTAAGTTGTACTAAAAGTTTTGGC

The text below walks through data of PMC7822796, “Pleiotropic function of the SQUAMOSA PROMOTER-BINDING PROTEIN-LIKE gene TaSPL14 in wheat plant architecture”.

In this data set the target is T1, GST-TaSPL14. As to the kind of experiment: EMSA; 10 mM ZnCl2, poly dI-dC; competed by unlabeled probe; EMSA: 1x binding buffer (printed as 100 mM Tris, 500 mM KCl, 10 mM DTT, pH 7.5), 10% glycerol, 0.5 mM EDTA, 10 mM ZnCl2, 50 ng/uL poly dI-dC, 20 uL, 30 min at room temperature, 6% native PAGE. The conditions noted are these: protein: recombinant; tags: GST (N-terminal, pGEX6P-1); label: 5' biotin; blunt.
Turning to B1, the binding result is recorded as “binds”.

On to B2, for which the binding result is recorded as “binds”.

As to B3, the binding result was “binds”.
